Common to all, as to assay: cell-based or functional assay
One test concerns the target T1, human GIP receptor (human, UniProt P48546 22-466).
T1 sequence (looked up): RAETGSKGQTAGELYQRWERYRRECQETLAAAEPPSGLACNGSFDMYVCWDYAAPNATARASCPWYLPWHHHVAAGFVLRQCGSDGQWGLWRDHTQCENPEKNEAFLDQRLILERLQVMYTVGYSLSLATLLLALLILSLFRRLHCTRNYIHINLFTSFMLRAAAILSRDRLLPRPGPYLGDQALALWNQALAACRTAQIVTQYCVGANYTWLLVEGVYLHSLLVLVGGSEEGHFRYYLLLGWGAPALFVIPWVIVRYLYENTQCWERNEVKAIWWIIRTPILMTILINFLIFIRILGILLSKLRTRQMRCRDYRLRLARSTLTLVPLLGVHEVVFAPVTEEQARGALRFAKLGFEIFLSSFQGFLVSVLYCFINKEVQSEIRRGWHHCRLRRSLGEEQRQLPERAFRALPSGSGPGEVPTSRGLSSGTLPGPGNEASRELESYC

The target of the next test is human GLP-1 receptor (human, UniProt P43220 24-463).
Another test addresses human glucagon receptor (human, UniProt P47871 26-477).

Data on 14 molecules can be found in US20230265151A1, “GIP/GLP1 CO-AGONIST COMPOUNDS” (priority 2020, published 2023).

*1 amine or outer side, *2 acyl side, *3 side chain or, on linkers, in order; H or OH if unused. Where no end group is shown, it is not given here. Side-chain parts run from the residue outwards. [ ]: non-standard residue; d: D form. The star is where a group is joined. αMePhe(2-F) = C[C@](N)(Cc1ccccc1F)C(=O)O; γGlu = O=C(O)[C@H](CCC(=O)[*:2])N[*:1]; C14 diacid = O=C(O)CCCCCCCCCCCCC(=O)*; αMeY = C[C@](N)(Cc1ccc(O)cc1)C(=O)O; αMeF = C[C@](N)(Cc1ccccc1)C(=O)O; αMeL = CC(C)C[C@](C)(N)C(=O)O; Orn = NCCC[C@H](N)C(=O)O; AEEA = NCCOCCOCC(=O)O; Aib = CC(C)(N)C(=O)O A value given as a limit tells only on which side of the number the result lay.

B1: Y-Aib-EGT-αMeF(2F)-TSDVSI-αMeL-LD-Orn-K((2-[2-(2-Amino-ethoxy)-ethoxy]-acetyl)2-(γ-Glu)-CO-(CH2)12-CO2H)AQ-Aib-E-αMeF-I-(D-Glu)-αMeY-LIEGGK((2-[2-(2-Amino-ethox … (peptide)
peptide: YXEGTXTSDVSIXLDXKAQXEXIXXLIEGGKSSGAPPPS
modifications: Aib2, αMeF(2F)6, αMeL13, Orn16, Aib20, αMeF22, D-Glu24, αMeY25; acylated K17, K31 (groups as in name); C-terminal amide
With B1, the “cAMP EC50 (1.0% HSA)” value with human GIP receptor was 2.64 nM; with human GLP-1 receptor, 76.8 nM; with human glucagon receptor it was more than 9950 nM. In addition, the results for the “cAMP Emax (1.0% HSA)” value in the test with human GIP receptor and with human GLP-1 receptor were 102% and 108%, respectively.

B2: Y-Aib-EGT-αMeF(2F)-TSD-4Pal-SI-αMeL-LD-Orn-K((2-[2-(2-Amino-ethoxy)-ethoxy]-acetyl)2-(γ-Glu)-CO-(CH2)12-CO2H)AQ-Aib-Orn-FI-(D-Glu)-αMeY-LIEGGK((2-[2-(2-Amino-et … (peptide)
peptide: YXEGTXTSDXSIXLDXKAQXXFIXXLIEGGKSSGAPPPS
modifications: Aib2, αMeF(2F)6, 4Pal10, αMeL13, Orn16, Aib20, Orn21, D-Glu24, αMeY25; acylated K17, K31 (groups as in name); C-terminal amide
As to B2, the “cAMP EC50 (1.0% HSA)” value is 0.35 nM with human GIP receptor, 11 nM with human GLP-1 receptor and more than 9950 nM with human glucagon receptor. For the same molecule, in the test with human GIP receptor, the “cAMP Emax (1.0% HSA)” value was determined as 81.3%.

B3: Y-Aib-EGT-αMeF(2F)-TSD-4Pal-SI-αMeL-LD-Orn-K((2-[2-(2-Amino-ethoxy)-ethoxy]-acetyl)2-(γ-Glu)-CO-(CH2)12-CO2H)AQ-Aib-GFI-(D-Glu)-αMeY-LIEGGK((2-[2-(2-Amino-ethox … (peptide)
peptide: YXEGTXTSDXSIXLDXKAQXGFIXXLIEGGKSSGAPPPS
modifications: Aib2, αMeF(2F)6, 4Pal10, αMeL13, Orn16, Aib20, D-Glu24, αMeY25; acylated K17, K31 (groups as in name); C-terminal amide
For B3, the results for the “cAMP EC50 (1.0% HSA)” value in the test with human GIP receptor, with human GLP-1 receptor and in the test with human glucagon receptor were 0.515 nM, 35.5 nM and more than 9950 nM, respectively. Also, the “cAMP Emax (1.0% HSA)” value with human GIP receptor was found to be 94.2%.

B4: Y-Aib-EGT-αMeF(2F)-TSD-4Pal-SI-αMeL-LD-Orn-K((2-[2-(2-Amino-ethoxy)-ethoxy]-acetyl)2-(γ-Glu)-CO-(CH2)12-CO2H)AQ-Aib-E-1Nal-I-(D-Glu)-αMeY-LIEGGK((2-[2-(2-Amino- … (peptide)
peptide: YXEGTXTSDXSIXLDXKAQXEXIXXLIEGGKSSGAPPPS
modifications: Aib2, αMeF(2F)6, 4Pal10, αMeL13, Orn16, Aib20, 1Nal22, D-Glu24, αMeY25; acylated K17, K31 (groups as in name); C-terminal amide
With B4, the “cAMP EC50 (1.0% HSA)” value with human GIP receptor was 0.787 nM; in the test with human GLP-1 receptor it was 27 nM; with human glucagon receptor, more than 9950 nM. Also, the “cAMP Emax (1.0% HSA)” value came out at 90.6% with human GIP receptor and 93% with human GLP-1 receptor.

B5: Y-Aib-EGT-αMeF(2F)-TSD-4Pal-SI-αMeL-LD-Orn-K((2-[2-(2-Amino-ethoxy)-ethoxy]-acetyl)2-(γ-Glu)-CO-(CH2)12-CO2H)AQ-Aib-EFIG-αMeY-LIEGGK((2-[2-(2-Amino-ethoxy)-etho … (peptide)
peptide: YXEGTXTSDXSIXLDXKAQXEFIGXLIEGGKSSGAPPPS
modifications: Aib2, αMeF(2F)6, 4Pal10, αMeL13, Orn16, Aib20, αMeY25; acylated K17, K31 (groups as in name); C-terminal amide
Turning to B5, the “cAMP EC50 (1.0% HSA)” value was 0.52 nM with human GIP receptor, 12.3 nM in the test with human GLP-1 receptor and more than 9950 nM with human glucagon receptor. Besides, the “cAMP Emax (1.0% HSA)” value with human GIP receptor was 95.9%; in the test with human GLP-1 receptor it was 95.8%.

B6: Y-Aib-EGT-αMeF(2F)-TSD-4Pal-SI-αMeL-LD-Orn-K((2-[2-(2-Amino-ethoxy)-ethoxy]-acetyl)2-(γ-Glu)-CO-(CH2)12-CO2H)AQ-Aib-EFI-(D-Glu)-αMeY-LI-Orn-GGK((2-[2-(2-Amino-e … (peptide)
peptide: YXEGTXTSDXSIXLDXKAQXEFIXXLIXGGKSSGAPPPS
modifications: Aib2, αMeF(2F)6, 4Pal10, αMeL13, Orn16, Aib20, D-Glu24, αMeY25, Orn28; acylated K17, K31 (groups as in name); C-terminal amide
B6: the “cAMP EC50 (1.0% HSA)” value with human GIP receptor is 0.306 nM; with human GLP-1 receptor, 17.3 nM; with human glucagon receptor, more than 9950 nM. The “cAMP Emax (1.0% HSA)” value worked out at 87.5% in the test with human GIP receptor and 112% in the test with human GLP-1 receptor.

B7: Y-Aib-EGT-αMeF(2F)-TSD-Ac4c-SI-αMeL-LD-Orn-K((2-[2-(2-Amino-ethoxy)-ethoxy]-acetyl)2-(γ-Glu)-CO-(CH2)12-CO2H)AQ-Aib-EFI-(D-Glu)-αMeY-LIEGGK((2-[2-(2-Amino-ethox … (peptide)
peptide: YXEGTXTSDXSIXLDXKAQXEFIXXLIEGGKSSGAPPPS
modifications: Aib2, αMeF(2F)6, Ac4c10, αMeL13, Orn16, Aib20, D-Glu24, αMeY25; acylated K17, K31 (groups as in name); C-terminal amide
Turning to B7, the entries for the “cAMP EC50 (1.0% HSA)” value in the test with human GIP receptor, in the test with human GLP-1 receptor and with human glucagon receptor were 4.68 nM, 8.84 nM and more than 9950 nM, respectively. Besides, in the test with human GLP-1 receptor, the “cAMP Emax (1.0% HSA)” value came to 84%.

B8: Y-Aib-EGT-αMeF(2F)-TSD-4Pal-Aib-I-αMeL-LD-Orn-K((2-[2-(2-Amino-ethoxy)-ethoxy]-acetyl)2-(γ-Glu)-CO-(CH2)12-CO2H)AQ-Aib-EFI-(D-Glu)-αMeY-LIEGGK((2-[2-(2-Amino-et … (peptide)
peptide: YXEGTXTSDXXIXLDXKAQXEFIXXLIEGGKSSGAPPPS
modifications: Aib2, αMeF(2F)6, 4Pal10, Aib11, αMeL13, Orn16, Aib20, D-Glu24, αMeY25; acylated K17, K31 (groups as in name); C-terminal amide
With B8, the “cAMP EC50 (1.0% HSA)” value was 1.49 nM with human GIP receptor, 27.7 nM with human GLP-1 receptor and more than 9950 nM with human glucagon receptor. Also, the “cAMP Emax (1.0% HSA)” value with human GIP receptor stood at 94.2%; with human GLP-1 receptor it was 108%.

B9: Y-Aib-EGT-αMeF(2F)-TSDY-Dap-I-αMeL-LD-Orn-K((2-[2-(2-Amino-ethoxy)-ethoxy]-acetyl)2-(γ-Glu)-CO-(CH2)12-CO2H)AQ-Aib-EFI-(D-Glu)-αMeY-LIEGGK((2-[2-(2-Amino-ethoxy … (peptide)
peptide: YXEGTXTSDYXIXLDXKAQXEFIXXLIEGGKSSGAPPPS
modifications: Aib2, αMeF(2F)6, Dap11, αMeL13, Orn16, Aib20, D-Glu24, αMeY25; acylated K17, K31 (groups as in name); C-terminal amide
Consider B9, for which the “cAMP EC50 (1.0% HSA)” value was 2.7 nM in the test with human GIP receptor, 26.6 nM with human GLP-1 receptor and more than 9950 nM with human glucagon receptor. In the test with human GIP receptor, the “cAMP Emax (1.0% HSA)” value is 83.7%.

B10: Y-Aib-EGT-αMeF(2F)-TSD-4Pal-SI-αMeL-LD-Orn-K((2-[2-(2-Amino-ethoxy)-ethoxy]-acetyl)2-(γ-Glu)-CO-(CH2)12-CO2H)AQ-Aib-E-3,5FPhe-I-(D-Glu)-αMeY-LIEGGK((2-[2-(2-Ami … (peptide)
peptide: YXEGTXTSDXSIXLDXKAQXEXIXXLIEGGKSSGAPPPS
modifications: Aib2, αMeF(2F)6, 4Pal10, αMeL13, Orn16, Aib20, 3,5FPhe22, D-Glu24, αMeY25; acylated K17, K31 (groups as in name); C-terminal amide
Consider B10, for which the “cAMP EC50 (1.0% HSA)” value in the test with human GIP receptor is 1.05 nM; in the test with human GLP-1 receptor, 25.5 nM; in the test with human glucagon receptor, more than 9950 nM. Moreover, the “cAMP Emax (1.0% HSA)” value with human GLP-1 receptor worked out at 104%.

B11: Y-Aib-EGT-αMeF(2F)-TSDVSI-αMeL-LD-Orn-K((2-[2-(2-Amino-ethoxy)-ethoxy]-acetyl)2-(γ-Glu)-CO-(CH2)12-CO2H)AQ-Aib-EFI-(D-Glu)-αMeY-LIEGGK((2-[2-(2-Amino-ethoxy)-et … (peptide)
peptide: YXEGTXTSDVSIXLDXKAQXEFIXXLIEGGKSSGAPPPS
modifications: Aib2, αMeF(2F)6, αMeL13, Orn16, Aib20, D-Glu24, αMeY25; acylated K17, K31 (groups as in name); C-terminal amide
B11: the entries for the “cAMP EC50 (1.0% HSA)” value in the test with human GIP receptor, with human GLP-1 receptor and in the test with human glucagon receptor were 3.81 nM, 23.4 nM and more than 9950 nM, respectively. For the same molecule, the “cAMP Emax (1.0% HSA)” value in the test with human GIP receptor is 104%; with human GLP-1 receptor it was 96.6%.

B12: Y-Aib-EGT-αMeF(2F)-TSD-4Pal-SI-αMeL-LD-Orn-K((2-[2-(2-Amino-ethoxy)-ethoxy]-acetyl)2-(γ-Glu)-CO-(CH2)12-CO2H)AQ-Aib-E-2Nal-I-(D-Glu)-αMeY-LIEGGK((2-[2-(2-Amino- … (peptide)
peptide: YXEGTXTSDXSIXLDXKAQXEXIXXLIEGGKSSGAPPPS
modifications: Aib2, αMeF(2F)6, 4Pal10, αMeL13, Orn16, Aib20, 2Nal22, D-Glu24, αMeY25; acylated K17, K31 (groups as in name); C-terminal amide
Turning to B12, the “cAMP EC50 (1.0% HSA)” value was 2.49 nM with human GIP receptor, 20 nM with human GLP-1 receptor and more than 9950 nM with human glucagon receptor. The “cAMP Emax (1.0% HSA)” value with human GLP-1 receptor was 81.1%.

B13: Y-Aib-EGT-αMeF(2F)-TSD-4Pal-SI-αMeL-LD-Orn-K((2-[2-(2-Amino-ethoxy)-ethoxy]-acetyl)2-(γ-Glu)-CO-(CH2)12-CO2H)AQ-Aib-E-αMeF(2F)-I-(D-Glu)-αMeY-LIEGGK((2-[2-(2-Am … (peptide)
peptide: YXEGTXTSDXSIXLDXKAQXEXIXXLIEGGKSSGAPPPS
modifications: Aib2, αMeF(2F)6, 4Pal10, αMeL13, Orn16, Aib20, αMeF(2F)22, D-Glu24, αMeY25; acylated K17, K31 (groups as in name); C-terminal amide
In the case of B13, the “cAMP EC50 (1.0% HSA)” value was 0.591 nM in the test with human GIP receptor, 209 nM with human GLP-1 receptor and more than 9950 nM with human glucagon receptor. The “cAMP Emax (1.0% HSA)” value with human GIP receptor worked out at 80.3%.

Turning to Y[Aib]EGT[αMePhe(2-F)]TSDV[Aib]I[αMeL]LD[Orn]K([AEEA-AEEA-γGlu-C14 diacid])AQ[Aib]E[αMeF]I[dE][αMeY]LIEGGK([AEEA-AEEA-γGlu-C14 diacid])SSGAPPPS-NH2, the entries for the “cAMP EC50 (1.0% HSA)” value with human GIP receptor, in the test with human GLP-1 receptor and in the test with human glucagon receptor were 5.58 nM, 66 nM and more than 9950 nM, respectively. Further, in the test with human GIP receptor, the “cAMP Emax (1.0% HSA)” value amounted to 92%.
